Substitutions are numbered along the chain they refer to. One block for each binder: values may come before it.
What was measured:
[1] = molecular target: T1, misdisordered truncated tau 151-391/4R (human, UniProt P10636 468-708); experiment: cell-based or functional assay
[2] = molecular target: T1, misdisordered truncated tau 151-391/4R; experiment: SPR Biacore T200, antibody captured by anti-IgG on CM5 chip, tau 151-391/4R as analyte, steady state analysis
Experimental: Antibody affinity determination was carried out by SPR analysis using a Biacore T200. Anti-human IgG (GE Healthcare, cat. no. BR-1008-39) or anti-murine IgG (GE Healthcare, cat. no. BR-1008-38) was covalently immobilized to a CM5 chip (Cat. no. BR-1005-30) to the point of saturation and in accordance with the manufacturer's instructions. […] Association time was set at 150 sec and disassociation time 300 sec. Tau concentrations were chosen empirically in order to obtain curvature during the association phase. The kinetics of binding/dissociation was initially analyzed according to the 1:1 interaction model using BIAcore T200 evaluation software package 2.0.

[3] = molecular target: T1, misdisordered truncated tau 151-391/4R; experiment: binding ELISA, plate coated with Tau 151-391/4R
tau peptide 282-311 = molecular target: T2, tau peptide 282-311 (human); experiment: direct ELISA, tau peptide coated on plate
T2 construct: Synthetic peptide (EZBiolabs), numbered on tau 2N4R; also called peptide derived from MTBRII
T2 peptide: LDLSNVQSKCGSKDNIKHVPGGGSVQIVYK

T1 sequence (P10636 468-708): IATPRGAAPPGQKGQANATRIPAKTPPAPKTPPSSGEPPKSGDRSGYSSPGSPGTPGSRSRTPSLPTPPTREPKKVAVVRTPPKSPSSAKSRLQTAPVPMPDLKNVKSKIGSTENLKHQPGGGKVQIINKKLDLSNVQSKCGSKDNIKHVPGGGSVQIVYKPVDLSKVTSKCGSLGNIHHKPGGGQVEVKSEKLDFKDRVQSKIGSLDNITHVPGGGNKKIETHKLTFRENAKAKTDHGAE

B1: chimeric DC8E8 (isotype not stated where tested) (antibody)
VH: QVQLQQSGPELVKPGTSVKMPCKASGYIFTDYVISWVKQRTGQGLEWIGEIFPRSGSTYYNEKFKGKATLTADKSSNTAYMQLSSVTSEDSAVYFCARDYYGTSFAMDYWGQGTSVTVSS
light: DIVMSQSPSSLAVSAGEKVTMSCKSSQSLLNSRTRKNYLAWYQQKPGQSPKLLIYWASTRESGVPDRFTGSGSGTDFTLTISSVQAEDLAVYYCKQSFYLRTFGGGTKLDIKRTVAAPSVFIFPPSDEQLKSGTASVVCLLNNFYPREAKVQWKVDNALQSGNSQESVTEQDSKDSTYSLSSTLTLSKADYEKHKVYACEVTHQGLSSPVTKSFNRGEC
notes: Whole chimeric antibody with human constant regions; also called chimeric antibody
amount of fibrillized pathological tau forms (Thioflavin T fluorescence), antibody at 10 uM [1]: < 5.9% | Kd [2]: ~10 nM

binding result [3]: binds
B2: AX002, humanized DC8E8 RHB/RKA (isotype not stated where tested) (antibody)
VH: QVQLVQSGPEVKKPGSSVKVPCKASGYIFTDYVISWVKQAPGQGLEWIGEIFPRSGSTYYNEKFKGKATLTADKSTSTAYMELSSLRSEDTAVYFCARDYYGTSFAMDYWGQGTLVTVSS
light: DIVMTQSPLSLPVTPGEPASISCKSSQSLLNSRTRKNYLAWYLQKPGQSPQLLIYWASTRESGVPDRFTGSGSGTDFTLKISRVEAEDVGVYYCKQSFYLRTFGQGTKVEIKRTVAAPSVFIFPPSDEQLKSGTASVVCLLNNFYPREAKVQWKVDNALQSGNSQESVTEQDSKDSTYSLSSTLTLSKADYEKHKVYACEVTHQGLSSPVTKSFNRGEC

Kd [2]: 9 nM
B3: AX016, humanized DC8E8 RHD/RKB (isotype not stated where tested) (antibody)
VH: B2 VH with P9A, P21S, I28T, T30S, K38R, I48M, K67R, A68V, L70I, F95Y
light: B2 light with T5S
notes: also called AX016 (DB)

B4: mouse monoclonal antibody DC8E8 (antibody, mouse IgG1)
heavy: QVQLQQSGPELVKPGTSVKMPCKASGYIFTDYVISWVKQRTGQGLEWIGEIFPRSGSTYYNEKFKGKATLTADKSSNTAYMQLSSVTSEDSAVYFCARDYYGTSFAMDYWGQGTSVTVSSAKTTPPSVYPLAPGSAAQTNSMVTLGCLVKGYFPEPVTVTWNSGSLSSGVHTFPAVLQSDLYTLSSSVTVPSSTWPSQTVTCNVAHPASSTKVDKKIVPRDCGCKPCICTVPEVSSVFIFPPKPKDVLTITLTPKVTCVVVDISKDDPEVQFSWFVDDVEVHTAQTKPREEQINSTFRSVSELPIMHQDWLNGKEFKCRVNSAAFPAPIEKTISKTKGRPKAPQVYTIPPPKEQMAKDKVSLTCMITNFFPEDITVEWQWNGQPAENYKNTQPIMDTDGSYFVYSKLNVQKSNWEAGNTFTCSVLHEGLHNHHTEKSLSHSPGK
VL: DIVMSQSPSSLAVSAGEKVTMSCKSSQSLLNSRTRKNYLAWYQQKPGQSPKLLIYWASTRESGVPDRFTGSGSGTDFTLTISSVQAEDLAVYYCKQSFYLRTFGGGTKLDIK
notes: also called murine DC8E8; mouse DC8E8
binding result (tau peptide 282-311): binds | amount of fibrillized pathological tau forms (Thioflavin T fluorescence), antibody at 10 uM [1]: < 4.7% | Kd [2]: ~10 nM

Source: US20180142007A1 (AXON NEUROSCIENCE, published 2018)
